{"source": "paper PMC10250209", "about": "“UV-DDB stimulates the activity of SMUG1 during base excision repair of 5-hydroxymethyl-2'-deoxyuridine moieties”", "key": {"SMUG1 WT [1]": {"target": "T1, SMUG1 WT (UniProt Q53HV7)", "T1 sequence": "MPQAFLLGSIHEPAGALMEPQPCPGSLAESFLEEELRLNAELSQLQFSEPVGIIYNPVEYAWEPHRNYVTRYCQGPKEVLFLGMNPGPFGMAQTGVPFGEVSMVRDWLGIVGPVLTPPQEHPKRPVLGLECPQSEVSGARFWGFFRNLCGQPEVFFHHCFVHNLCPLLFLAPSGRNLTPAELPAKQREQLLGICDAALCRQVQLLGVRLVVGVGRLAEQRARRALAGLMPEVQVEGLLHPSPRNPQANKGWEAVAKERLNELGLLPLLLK", "assay": "single-molecule DNA tightrope", "details": "tetrahydrofuran abasic site every 2 kb, EMSA: 8 nM DNA, 20 mM HEPES pH 7.5, 150 mM NaCl, 2 mM DTT (5 mM for SMUG1), 5% glycerol, 0.5 mg/ml BSA (0.5 mg/l [sic] for SMUG1), +/- 1.5 mM MgCl2, RT 20 min"}, "[2]": {"target": "single-strand selective monofunctional DNA glycosylase (SMUG1), His-tagged (UniProt Q53HV7)", "assay": "single-molecule DNA tightrope assay, dual-colour Qdot co-localisation; 605 Qdot-labelled His-SMUG1 (2.6 nM) injected first, then 705 Qdot-labelled Flag-UV-DDB (3.1 nM), on DNA tightropes with one abasic (THF) site every 2 kb; 25 mM HEPES pH 7.5, 150 mM NaCl, 0.1 mg/ml BSA, 50 nM biotin, 1 mM DTT; RT"}, "SMUG1 WT [3]": {"target": "T1, SMUG1 WT", "assay": "EMSA", "details": "apparent Kd; abasic substrate taken as THF37; tetrahydrofuran abasic analog (Z, written N) at position 20 of top strand, opposite T; EMSA: 8 nM DNA, 20 mM HEPES pH 7.5, 150 mM NaCl, 2 mM DTT (5 mM for SMUG1), 5% glycerol, 0.5 mg/ml BSA (0.5 mg/l [sic] for SMUG1), +/- 1.5 mM MgCl2, RT 20 min"}, "[4]": {"target": "T2, UV-DDB (DDB1-DDB2 heterodimer) (UniProt Q16531;Q92466 1-1140;1-427)", "T2 sequence (Q16531 whole entry, chain 1 of 2)": "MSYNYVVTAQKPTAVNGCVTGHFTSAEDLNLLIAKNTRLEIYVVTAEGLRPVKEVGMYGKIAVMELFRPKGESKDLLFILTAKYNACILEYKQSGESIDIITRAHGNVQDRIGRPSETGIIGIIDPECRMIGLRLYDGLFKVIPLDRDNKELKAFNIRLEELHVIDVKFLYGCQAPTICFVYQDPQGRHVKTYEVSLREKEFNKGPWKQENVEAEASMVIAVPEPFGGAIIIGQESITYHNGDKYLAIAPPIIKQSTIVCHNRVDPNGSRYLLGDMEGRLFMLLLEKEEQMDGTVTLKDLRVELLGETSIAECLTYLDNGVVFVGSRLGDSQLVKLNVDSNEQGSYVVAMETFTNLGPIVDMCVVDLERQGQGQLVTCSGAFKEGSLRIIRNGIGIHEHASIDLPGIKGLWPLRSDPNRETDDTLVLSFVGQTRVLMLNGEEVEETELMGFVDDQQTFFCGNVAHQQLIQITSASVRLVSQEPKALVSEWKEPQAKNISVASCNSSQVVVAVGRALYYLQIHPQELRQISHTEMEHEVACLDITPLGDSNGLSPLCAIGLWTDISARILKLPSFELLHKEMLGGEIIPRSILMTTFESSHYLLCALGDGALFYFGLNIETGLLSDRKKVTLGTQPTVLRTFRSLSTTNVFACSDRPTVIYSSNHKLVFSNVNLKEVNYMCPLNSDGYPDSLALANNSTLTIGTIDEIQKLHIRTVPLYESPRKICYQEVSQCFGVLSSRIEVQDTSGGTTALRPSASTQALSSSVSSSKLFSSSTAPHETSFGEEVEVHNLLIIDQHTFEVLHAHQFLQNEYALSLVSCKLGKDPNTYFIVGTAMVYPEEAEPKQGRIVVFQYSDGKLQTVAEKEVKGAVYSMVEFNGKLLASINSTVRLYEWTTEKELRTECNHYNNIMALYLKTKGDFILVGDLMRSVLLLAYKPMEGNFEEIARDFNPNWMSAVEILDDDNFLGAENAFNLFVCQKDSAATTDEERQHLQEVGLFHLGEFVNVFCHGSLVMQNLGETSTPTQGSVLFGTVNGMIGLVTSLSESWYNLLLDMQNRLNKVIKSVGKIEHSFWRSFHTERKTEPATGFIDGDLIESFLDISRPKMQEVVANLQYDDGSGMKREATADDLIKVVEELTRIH", "T2 sequence (Q92466 whole entry, chain 2 of 2)": "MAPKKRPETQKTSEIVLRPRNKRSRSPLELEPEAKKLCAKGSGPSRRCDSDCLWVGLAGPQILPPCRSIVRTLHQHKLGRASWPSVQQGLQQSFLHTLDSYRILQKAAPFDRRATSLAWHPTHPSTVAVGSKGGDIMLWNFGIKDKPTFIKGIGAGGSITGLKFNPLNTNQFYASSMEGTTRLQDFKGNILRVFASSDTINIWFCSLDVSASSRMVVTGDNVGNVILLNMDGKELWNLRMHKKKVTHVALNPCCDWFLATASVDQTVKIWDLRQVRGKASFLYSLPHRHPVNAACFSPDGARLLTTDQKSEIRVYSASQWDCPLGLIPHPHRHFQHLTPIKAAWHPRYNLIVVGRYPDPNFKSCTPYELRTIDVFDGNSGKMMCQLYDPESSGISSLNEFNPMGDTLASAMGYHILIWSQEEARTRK", "assay": "EMSA; 1.5 mM Mg2+; EMSA: 8 nM DNA, 20 mM HEPES pH 7.5, 150 mM NaCl, 2 mM DTT (5 mM for SMUG1), 5% glycerol, 0.5 mg/ml BSA (0.5 mg/l [sic] for SMUG1), +/- 1.5 mM MgCl2, RT 20 min (30 min for displacement); 5% native gel, 1/2x TBE, 4 C", "details": "protein: recombinant, tags: DDB1-6xHis, DDB2-Flag, copies: 1;1, label: 3'-6FAM on top strand, blunt"}, "[5]": {"target": "T2, UV-DDB (DDB1-DDB2 heterodimer)", "assay": "EMSA; no Mg2+; EMSA: 8 nM DNA, 20 mM HEPES pH 7.5, 150 mM NaCl, 2 mM DTT (5 mM for SMUG1), 5% glycerol, 0.5 mg/ml BSA (0.5 mg/l [sic] for SMUG1), +/- 1.5 mM MgCl2, RT 20 min (30 min for displacement); 5% native gel, 1/2x TBE, 4 C", "details": "protein: recombinant, tags: DDB1-6xHis, DDB2-Flag, copies: 1;1, label: 3'-6FAM on top strand, blunt"}}, "data": [{"molecule": "DNA tightrope with one THF site every 2 kb", "values": [{"measurement": "binding", "setting": "SMUG1 WT [1]; bound half-life with equimolar unlabeled UV-DDB, Qdot-labeled SMUG1", "value": 580, "unit": "s"}, {"measurement": "binding", "setting": "SMUG1 WT [1]; bound half-life, SMUG1 alone, Qdot-labeled", "value": 4950, "unit": "s"}]}, {"molecule": "UV-damaged DNA-binding protein (UV-DDB), DDB1-6xHis/DDB2-Flag heterodimer (from UniProt Q16531 1-1140; Q92466 1-427) (complex)", "values": [{"measurement": "percent of all particles co-localised on abasic DNA", "setting": "[2]", "value": 15.6, "unit": "%"}]}, {"molecule": "CCGAGTCATTCCTGCAGCGNGTCCATGGGAGTCAAAT / ATTTGACTCCCATGGACTCGCTGCAGGAATGACTCGG [THF37]", "values": [{"measurement": "Kd", "setting": "SMUG1 WT [3]", "value": 65, "unit": "nM"}]}, {"molecule": "dU:dA37 (dsDNA, dU at position 22 of top strand, opposite dA) DNA 1: CCGAGTCATTCCTGCAGCGAGUCCATGGGAGTCAAAT DNA 2: ATTTGACTCCCATGGACTCGCTGCAGGAATGACTCGG", "values": [{"measurement": "Kd", "setting": "[4]", "value": "52 ± 3.4", "unit": "nM"}, {"measurement": "Kd", "setting": "[5]", "value": "15 ± 1", "unit": "nM"}]}, {"molecule": "dU:dG37 (dsDNA, dU at position 22 of top strand, opposite dG) DNA 1: CCGAGTCATTCCTGCAGCGAGUCCATGGGAGTCAAAT DNA 2: ATTTGACTCCCATGGGCTCGCTGCAGGAATGACTCGG", "values": [{"measurement": "Kd", "setting": "[4]; U:G mispair", "value": "21 ± 2.1", "unit": "nM"}, {"measurement": "Kd", "setting": "[5]; U:G mispair", "value": "18 ± 1.6", "unit": "nM"}]}, {"molecule": "UD37 (undamaged) (dsDNA) DNA 1: CCGAGTCATTCCTGCAGCGAGTCCATGGGAGTCAAAT DNA 2: ATTTGACTCCCATGGACTCGCTGCAGGAATGACTCGG", "values": [{"measurement": "Kd", "setting": "[4]", "value": "125 ± 9.1", "unit": "nM"}, {"measurement": "Kd", "setting": "[5]", "value": "31 ± 2", "unit": "nM"}]}, {"molecule": "5-hmdU:dG37 (dsDNA, 5-hydroxymethyl-dU (X, written U) at position 22 of top strand, opposite dG) DNA 1: CCGAGTCATTCCTGCAGCGAGUCCATGGGAGTCAAAT DNA 2: ATTTGACTCCCATGGGCTCGCTGCAGGAATGACTCGG", "values": [{"measurement": "Kd", "setting": "[4]; 5-hmdU:G mispair", "value": "27 ± 1.9", "unit": "nM"}, {"measurement": "Kd", "setting": "[5]; 5-hmdU:G mispair", "value": "16 ± 1.5", "unit": "nM"}]}, {"molecule": "5-hmdU:dA37 (dsDNA, 5-hydroxymethyl-dU (X, written U) at position 22 of top strand, opposite dA) DNA 1: CCGAGTCATTCCTGCAGCGAGUCCATGGGAGTCAAAT DNA 2: ATTTGACTCCCATGGACTCGCTGCAGGAATGACTCGG", "values": [{"measurement": "Kd", "setting": "[4]", "value": "48 ± 3", "unit": "nM"}, {"measurement": "Kd", "setting": "[5]", "value": "14 ± 1.1", "unit": "nM"}]}]}
